Source: the supplement of paper PMC10567573

B1: KRT13 (parent)
chain: TPGIDLTRVLAEMREQYEAMAERN

Variants of: B1
Experiment: protein stability index of a GFP-peptide fusion (GPS, HEK-293T) (PSI 1-6); higher = more stable
Details: c terminus: a fixed tail appended
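Further: lentivirally expressed fusions sorted by FACS into six bins by GFP to DsRed ratio, PSI derived from sequencing read proportions per bin multiplied by bin number.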

Protein stability index: each site, then its substitutions
A21: Q 4.54; K 3.94; C 4.29; M 4.09; H 4.07; P 4.93; L 4.39; G 2.79; D 4.91; R 4.18; I 4.27; F 3.98; S 4.65; Y 4.5; V 3.55
Q16: C 4.57; F 3.21; E 3.97; H 3.31; N 3.8; D 4.61; L 2.94; T 3.39; S 3.17; V 3.82; R 4.84; I 3.38; W 3.73; K 4.78; P 4.08; Y 4.01
R14: L 2.42; M 3.69; S 3.74; Q 4.46; T 4.44; Y 3.61; V 3.14; W 4.01; N 4.55; K 3.69; P 4.42
R23: D 4.84; F 3.78; Y 3.61; Q 4.39; C 4.43; T 4.08; L 3.34; I 2.94; N 4.59; G 3.98; S 4.56; A 3.9; V 3.01; P 4.62; W 2.83; M 3.27; E 4.9; K 4.03; H 4.21
E15: T 3.43; R 3.11; W 2.07; Q 3.28; K 3.83; L 3.04; G 3.82; Y 2.42; P 3.83; F 3.26; S 3.61; A 3.47; I 2.85; D 4.24; H 3.45; M 2.91; V 2.24; C 3.34
M20: L 3.74; G 4.22; C 4.1; W 5.32; A 4.74; F 3.42; P 4.81; T 4.25; I 3.88; Q 4.13; Y 4.62; E 4.49; D 4.79; K 4.81; H 4.32; V 3.09; R 4.68; N 3.18
N24: E 4.51; C 3.08; A 3.56; D 5.03
A19: I 3.73; L 2.92; K 3.53; Q 3.48; C 3.99; F 4.13; M 3.54; Y 3.76; D 4.08; N 4.28; G 4.22; P 4.08; T 4.16; R 3.57; W 3.4; S 4.53; H 3.71; V 3.23
E22: G 4.02; K 4.39; V 2.56; L 4.4; F 2.98; S 3.52; N 4.04; I 2.79; P 3.98; D 4.66; Y 3; A 4.08; T 3.87; C 3.7; M 4.03; W 2.86; H 3.73
E18: G 3.88; P 2.72; H 3.44; V 4.39; M 3.72; Y 3.87; S 3.96; W 3.62; D 4.27; N 3.5; K 3.84; C 2.93; A 4.23; Q 3.13; I 3.98; F 2.84; R 3.47; T 3.06
Y17: C 4.23; N 4.56; H 4.76; M 4.3; T 5.8; D 5.4; G 6; V 4.29; W 5.02; R 4.75; K 5.5; E 4.6; A 5.29
